21 molecules from patent US20240076396A1 (Regeneron, published 2024) can be followed below.

Positions count from the first letter of the chain named. In names and notes the source's numbering stands.

Test [1] has as its target T1, hGITR.mFc (dimeric recombinant human GITR ectodomain protein, mouse Fc fusion) (human).
T1 construct: also called dimeric human GITR; dimeric GITR
T1 chain: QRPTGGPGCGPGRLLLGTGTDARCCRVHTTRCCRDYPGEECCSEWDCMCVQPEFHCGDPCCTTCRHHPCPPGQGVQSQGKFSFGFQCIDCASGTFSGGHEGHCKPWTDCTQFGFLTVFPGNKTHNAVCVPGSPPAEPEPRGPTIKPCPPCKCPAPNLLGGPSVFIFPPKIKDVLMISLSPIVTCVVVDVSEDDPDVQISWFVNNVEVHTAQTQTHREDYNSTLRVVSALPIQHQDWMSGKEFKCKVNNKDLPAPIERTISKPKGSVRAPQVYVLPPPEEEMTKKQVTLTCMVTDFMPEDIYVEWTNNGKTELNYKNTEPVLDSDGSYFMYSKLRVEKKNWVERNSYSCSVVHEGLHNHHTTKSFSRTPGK
Kind of test: SPR Biacore T-200; purified antibody captured on anti-human Fc; 5 nM hGITR.mFc. As for the experimental part:
(§1) For purified antibodies, Biacore experiments were performed as follows. Using a Biacore T-200 instrument, antibodies were captured for 30 seconds at a flow rate of 8 uL/min on a CM5 anti-humanFc-coupled surface. Approximately 120 RU of each antibody were captured. 10 nM hGITR.mmH (soluble monomeric hGITR, SEQ ID NO: 45) or 5 nM hGITR.mFc (dimeric Macaca fasicularis GITR, SEQ ID NO: 46) were injected over this surface for 5 minutes at a flow rate of 50 uL/min. Dissociation was measured for 10 min. The KD and t_{1/2} were calculated by fitting the double-referenced sensorgrams to a 1:1 binding model.

Test [2] deals with T2, hGITR.mmH (soluble monomeric recombinant human GITR ectodomain protein) (human).
T2 construct: also called monomeric human GITR
T2 chain: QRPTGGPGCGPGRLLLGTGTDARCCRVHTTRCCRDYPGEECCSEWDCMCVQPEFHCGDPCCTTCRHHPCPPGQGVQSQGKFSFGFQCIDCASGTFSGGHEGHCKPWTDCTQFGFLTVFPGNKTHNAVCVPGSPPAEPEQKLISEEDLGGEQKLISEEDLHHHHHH
Kind of test: SPR Biacore T-200; purified antibody captured on anti-human Fc; 10 nM hGITR.mmH. As for the experimental part: as §1
(In general: SPR reads the build-up and loss of mass on a sensor chip optically.)

The target in test [3] is T1, hGITR.mFc (dimeric recombinant human …). Kind of test: SPR Biacore 2000 25C; CHOt supernatant antibody captured on anti-human Fc; 50 nM hGITR.mFc. As for the experimental part: (§2) Biacore experiments for antibodies secreted in conditioned culture medium were performed as follows. Using a Biacore 2000 instrument at 25° C., antibodies were captured for 80 seconds at a flow rate of 8 uL/min on a CM5 anti-humanFc-coupled surface. Approximately 1000-2000 RU of each antibody were captured. 100 nM hGITR.mmH (soluble monomeric hGITR, SEQ ID NO: 45) or 50 nM hGITR.mFc (dimeric Macaca fasicularis GITR, SEQ ID NO: 46) were injected over this surface for 2 minutes at a flow rate of 50 uL/min. Dissociation was measured for 2 minutes. The KD and t_{1/2} were calculated by fitting the double-referenced sensorgrams to a 1:1 binding model.

Test [4] deals with T2, hGITR.mmH (soluble monomeric …). As to the kind of experiment: SPR Biacore 2000 25C; CHOt supernatant antibody captured on anti-human Fc; 100 nM hGITR.mmH. Here is the method: as §2
For test [5] the target is unchanged. As to the kind of experiment: SPR Biacore 2000 25C; CHOt supernatant antibody captured on anti-human Fc. As for the experimental part:
as §2

For test [6], the target named is T1, hGITR.mFc (dimeric recombinant human …). The test is described as above. As for the experimental part: as §2

B1: mAb2 (antibody, human IgG1, kappa, V domains shown)
VH: QVQLQESGPGLVKPSETLSLTCIVSGGSISGYFWNWIRQPPGKGLEWIGYIYYSGTTIYNPSLKSRFTISLDTSKNQFSLKLTSVTAADTAVYYCARESYEPSPRYFDHWGQGTLVTVSS
VL: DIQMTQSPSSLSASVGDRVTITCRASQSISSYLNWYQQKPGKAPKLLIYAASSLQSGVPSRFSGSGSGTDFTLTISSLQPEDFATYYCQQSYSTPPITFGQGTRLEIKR
notes: Human IgG1; N101E variant of CompAb1; also called N101E Variant; N101E
On to B1, for which the Kd – broadly, the equilibrium constant for the complex coming apart – in test [1] stood at 0.902 nM; in test [2], 11.3 nM; in test [3], 1.27 nM; in test [4], 109 nM. Also, the t1/2 in test [1] turned out to be 9.55 min; in test [2], 2.8 min; in test [3] it was 34.9 min; in test [4], 0.99 min.

B2: CompAb1 (antibody, V domains shown)
VH: B1 VH with E101N
VL: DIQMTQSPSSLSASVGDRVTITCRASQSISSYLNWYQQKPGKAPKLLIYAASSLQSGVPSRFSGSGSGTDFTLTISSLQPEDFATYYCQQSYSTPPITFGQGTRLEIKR
notes: Human IgG1; also called WT; Sample Number 1
With B2, the Kd amounted to 0.137 nM in test [1], 1.51 nM in test [2], 0.201 nM in test [3] and 24.9 nM in test [4]. The t1/2 in test [1] is 35.6 min; in test [2] it was 6.75 min; in test [3] it was 194 min; in test [4] it was 4.56 min.

B3: CompAb1 heavy chain variant N101W (antibody, human IgG1, V domains shown)
VH: B1 VH with E101W
VL: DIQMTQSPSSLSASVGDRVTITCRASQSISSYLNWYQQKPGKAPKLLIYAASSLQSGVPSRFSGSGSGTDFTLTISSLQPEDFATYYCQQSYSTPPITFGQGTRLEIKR
notes: human IgG1 constant region; tested as CHOt supernatant; also called Sample Number 18
Turning to B3, the binding result was “no binding (tested: 100 nM hGITR.mmH)” in test [5] and “no binding (tested: 50 nM hGITR.mFc)” in test [6].

B4: CompAb1 heavy chain variant S103T (antibody, human IgG1, V domains shown)
VH: B1 VH with E101N, S103T
VL: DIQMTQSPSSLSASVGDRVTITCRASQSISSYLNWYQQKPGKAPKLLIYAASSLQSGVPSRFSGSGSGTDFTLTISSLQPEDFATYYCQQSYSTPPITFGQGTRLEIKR
notes: human IgG1 constant region; tested as CHOt supernatant; also called Sample Number 34
With B4, the results for the Kd in test [3] and in test [4] were 0.127 nM and 29.6 nM, respectively. Besides, the t1/2 stood at 249 min in test [3] and 3.88 min in test [4].

B5: mAb4 (antibody, human IgG1, kappa, V domains shown)
VH: B1 VH with E101T
VL: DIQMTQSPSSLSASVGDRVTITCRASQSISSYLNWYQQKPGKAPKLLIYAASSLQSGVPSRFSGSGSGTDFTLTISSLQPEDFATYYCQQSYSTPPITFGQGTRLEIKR
notes: Human IgG1; N101T variant of CompAb1; also called N101T Variant; N101T
Take B5: the Kd in test [1] turned out to be 0.663 nM; in test [2] it was 8 nM; in test [3], 0.284 nM; in test [4], 61.3 nM. The t1/2 in test [1] was found to be 10 min; in test [2] it was 2.25 min; in test [3], 110 min; in test [4], 1.52 min.

B6: CompAb1 heavy chain variant S103Q (antibody, human IgG1, V domains shown)
VH: B1 VH with E101N, S103Q
VL: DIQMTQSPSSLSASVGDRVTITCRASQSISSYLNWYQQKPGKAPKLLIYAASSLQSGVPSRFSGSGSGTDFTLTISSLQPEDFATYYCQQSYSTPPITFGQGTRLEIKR
notes: human IgG1 constant region; tested as CHOt supernatant; also called Sample Number 32
For the molecule B6, the Kd in test [3] is 0.255 nM; in test [4], 96.8 nM. For the same molecule, the t1/2 in test [3] was found to be 124 min; in test [4], 0.92 min.

B7: CompAb1 heavy chain variant S103N (antibody, human IgG1, V domains shown)
VH: B1 VH with E101N, S103N
VL: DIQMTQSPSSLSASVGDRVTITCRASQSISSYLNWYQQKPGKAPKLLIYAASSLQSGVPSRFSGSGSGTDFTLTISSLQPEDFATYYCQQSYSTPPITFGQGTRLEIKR
notes: human IgG1 constant region; tested as CHOt supernatant; also called Sample Number 30
In the case of B7, the values for the Kd in test [3] and in test [4] were 1.01 nM and 119 nM, respectively. Also, the t1/2 in test [3] came to 41.4 min; in test [4], 0.95 min.

B8: CompAb1 heavy chain variant N101H (antibody, human IgG1, V domains shown)
VH: B1 VH with E101H
VL: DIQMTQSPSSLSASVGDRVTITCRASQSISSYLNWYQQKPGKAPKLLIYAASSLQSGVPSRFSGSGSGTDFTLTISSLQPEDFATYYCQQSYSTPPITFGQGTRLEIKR
notes: human IgG1 constant region; tested as CHOt supernatant; also called Sample Number 7
For B8, the values for the binding result in test [5] and in test [6] were “no binding (tested: 100 nM hGITR.mmH)” and “no binding (tested: 50 nM hGITR.mFc)”, respectively.

B9: CompAb1 heavy chain variant N101P (antibody, human IgG1, V domains shown)
VH: B1 VH with E101P
VL: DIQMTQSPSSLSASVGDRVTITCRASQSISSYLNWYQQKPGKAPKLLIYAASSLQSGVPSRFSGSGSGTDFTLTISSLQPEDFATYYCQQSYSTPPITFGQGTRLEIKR
notes: human IgG1 constant region; tested as CHOt supernatant; also called Sample Number 12
With B9, the binding result in test [5] is “no binding (tested: 100 nM hGITR.mmH)”; in test [6], “no binding (tested: 50 nM hGITR.mFc)”.

B10: mAb3 (antibody, human IgG1, kappa, V domains shown)
VH: B1 VH with E101S
VL: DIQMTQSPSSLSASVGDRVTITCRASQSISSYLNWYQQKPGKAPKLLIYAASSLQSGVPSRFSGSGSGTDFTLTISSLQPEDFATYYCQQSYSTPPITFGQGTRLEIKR
notes: Human IgG1; N101S variant of CompAb1; also called N101S Variant; N101S
With B10, the Kd came to 0.882 nM in test [1], 6.05 nM in test [2], 0.908 nM in test [3] and 81.9 nM in test [4]. Besides, the t1/2 was determined as 5.56 min in test [1], 4.65 min in test [2], 37.7 min in test [3] and 0.92 min in test [4].

B11: CompAb1 heavy chain variant S103W (antibody, human IgG1, V domains shown)
VH: B1 VH with E101N, S103W
VL: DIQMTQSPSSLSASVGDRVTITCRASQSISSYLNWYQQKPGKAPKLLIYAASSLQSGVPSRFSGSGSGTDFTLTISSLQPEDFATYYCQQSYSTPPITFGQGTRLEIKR
notes: human IgG1 constant region; tested as CHOt supernatant; also called Sample Number 36
Turning to B11, in test [3], the Kd worked out at 1.61 nM and the t1/2 turned out to be 27 min. For the same molecule, in test [4], the Kd stood at 116 nM and the t1/2 is 0.94 min.

B12: CompAb1 heavy chain variant N101A (antibody, human IgG1, V domains shown)
VH: B1 VH with E101A
VL: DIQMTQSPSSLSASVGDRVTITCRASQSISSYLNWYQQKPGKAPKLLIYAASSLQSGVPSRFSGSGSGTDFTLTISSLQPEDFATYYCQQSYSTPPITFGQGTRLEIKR
notes: human IgG1 constant region; tested as CHOt supernatant; also called Sample Number 2
For B12, the binding result in test [5] is “no binding (tested: 100 nM hGITR.mmH)”. For the same molecule, in test [3], the Kd is 42.4 nM and the t1/2 was determined as 0.47 min.

B13: CompAb1 heavy chain variant S103V (antibody, human IgG1, V domains shown)
VH: B1 VH with E101N, S103V
VL: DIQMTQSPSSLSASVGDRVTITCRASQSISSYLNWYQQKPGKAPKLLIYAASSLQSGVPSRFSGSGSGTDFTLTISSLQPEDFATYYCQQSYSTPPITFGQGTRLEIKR
notes: human IgG1 constant region; tested as CHOt supernatant; also called Sample Number 35
For B13, in test [3], the Kd was found to be 3.82 nM and the t1/2 was 7.8 min. For the same molecule, in test [4], the Kd was 7.39 nM and the t1/2 amounted to 14.7 min.

B14: CompAb1 heavy chain variant N101F (antibody, human IgG1, V domains shown)
VH: B1 VH with E101F
VL: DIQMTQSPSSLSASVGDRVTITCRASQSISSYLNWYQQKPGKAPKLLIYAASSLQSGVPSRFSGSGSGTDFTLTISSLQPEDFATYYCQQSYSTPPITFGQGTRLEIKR
notes: human IgG1 constant region; tested as CHOt supernatant; also called Sample Number 5
With B14, the values for the binding result in test [5] and in test [6] were “no binding (tested: 100 nM hGITR.mmH)” and “no binding (tested: 50 nM hGITR.mFc)”, respectively.

B15: CompAb1 heavy chain variant S103M (antibody, human IgG1, V domains shown)
VH: B1 VH with E101N, S103M
VL: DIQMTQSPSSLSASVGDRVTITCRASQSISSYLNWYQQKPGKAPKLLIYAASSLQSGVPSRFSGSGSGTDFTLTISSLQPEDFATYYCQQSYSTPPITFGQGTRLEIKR
notes: human IgG1 constant region; tested as CHOt supernatant; also called Sample Number 29
B15: in test [3], the Kd was found to be 1.04 nM and the t1/2 was found to be 27.3 min. Moreover, in test [4], the Kd stood at 4.62 nM and the t1/2 came out at 15.2 min.

B16: CompAb1 heavy chain variant S103K (antibody, human IgG1, V domains shown)
VH: B1 VH with E101N, S103K
VL: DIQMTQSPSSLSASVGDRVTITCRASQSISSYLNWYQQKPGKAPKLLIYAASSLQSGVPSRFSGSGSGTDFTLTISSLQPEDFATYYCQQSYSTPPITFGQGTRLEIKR
notes: human IgG1 constant region; tested as CHOt supernatant; also called Sample Number 27
As for B16, the binding result in test [5] was “no binding (tested: 100 nM hGITR.mmH)”. For the same molecule, in test [3], the Kd was 47.5 nM and the t1/2 was 0.64 min.

B17: CompAb1 heavy chain variant S103Y (antibody, human IgG1, V domains shown)
VH: B1 VH with E101N, S103Y
VL: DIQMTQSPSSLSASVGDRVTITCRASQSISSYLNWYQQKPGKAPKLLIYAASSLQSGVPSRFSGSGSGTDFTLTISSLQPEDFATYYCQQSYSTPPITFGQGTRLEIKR
notes: human IgG1 constant region; tested as CHOt supernatant; also called Sample Number 37
For the molecule B17, in test [3], the Kd was 3.03 nM and the t1/2 worked out at 10.4 min. Further, in test [4], the Kd is 4.39 nM and the t1/2 worked out at 26.6 min.

B18: CompAb1 heavy chain variant S103P (antibody, human IgG1, V domains shown)
VH: B1 VH with E101N, S103P
VL: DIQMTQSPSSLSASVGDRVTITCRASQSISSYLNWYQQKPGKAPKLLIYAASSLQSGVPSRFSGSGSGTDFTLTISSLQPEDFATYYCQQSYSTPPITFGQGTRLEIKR
notes: human IgG1 constant region; tested as CHOt supernatant; also called Sample Number 31
On to B18, for which the Kd in test [3] worked out at 7.79 nM; in test [4], 28.4 nM. The t1/2 is 2.92 min in test [3] and 11.2 min in test [4].

B19: CompAb1 heavy chain variant N101L (antibody, human IgG1, V domains shown)
VH: B1 VH with E101L
VL: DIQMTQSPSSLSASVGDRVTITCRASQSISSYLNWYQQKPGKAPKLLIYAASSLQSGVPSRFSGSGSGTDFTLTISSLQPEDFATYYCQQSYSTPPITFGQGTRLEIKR
notes: human IgG1 constant region; tested as CHOt supernatant; also called Sample Number 10
For B19, the binding result in test [5] was “no binding (tested: 100 nM hGITR.mmH)”. Further, in test [3], the Kd is 57.5 nM and the t1/2 came to 0.45 min.

B20: CompAb1 heavy chain variant S103R (antibody, human IgG1, V domains shown)
VH: B1 VH with E101N, S103R
VL: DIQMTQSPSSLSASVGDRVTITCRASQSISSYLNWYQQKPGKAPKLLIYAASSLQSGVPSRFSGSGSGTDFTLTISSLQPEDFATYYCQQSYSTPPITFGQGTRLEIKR
notes: human IgG1 constant region; tested as CHOt supernatant; also called Sample Number 33
In the case of B20, the binding result in test [5] was “no binding (tested: 100 nM hGITR.mmH)”. In addition, in test [3], the Kd is 45.6 nM and the t1/2 came to 0.75 min.

B21: CompAb1 heavy chain variant N101Y (antibody, human IgG1, V domains shown)
VH: B1 VH with E101Y
VL: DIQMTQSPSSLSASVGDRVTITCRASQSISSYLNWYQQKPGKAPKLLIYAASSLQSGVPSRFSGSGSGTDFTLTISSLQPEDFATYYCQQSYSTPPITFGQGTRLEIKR
notes: human IgG1 constant region; tested as CHOt supernatant; also called Sample Number 19
With B21, the binding result in test [5] was “no binding (tested: 100 nM hGITR.mmH)”; in test [6] it was “no binding (tested: 50 nM hGITR.mFc)”.
